Data reported in patent publication US20170212117A1 (RANDOX LABORATORIES, published 2017).

Experiments:
[1] = molecular target: T1, Recombinant human mature SLPI (Secretory leukocyte protease inhibitor)
T1 chain: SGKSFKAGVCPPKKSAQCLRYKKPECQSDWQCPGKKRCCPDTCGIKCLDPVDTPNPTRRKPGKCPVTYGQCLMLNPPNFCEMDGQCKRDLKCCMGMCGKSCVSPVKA

[2] = molecular target: T2, Recombinant human mature SLPI (Secretory leukocyte protease inhibitor) (human, UniProt P03973 26-132); test: sandwich ELISA, hybridoma supernatant as capture, biotinylated anti-SLPI PAb BAF1274 as detector
T2 construct: Bought from R&D Systems (product number 1274-PI-100); also called full length SLPI; full-length SLPI
Experimental: FIG. 4. Detection of C-SLPI in CF sputum samples. CF sputum samples were assayed via ELISA for the presence of C-SLPI using the supernatant from hybridoma clone C5.5 as a capture antibody. Standard curve generated by assaying known concentration of C-SLPI produced by incubation of recombinant SLPI with NE (A). C-SLPI concentrations in 63 sputum samples derived from CF patients as identified via ELISA using C5.5 as a capture antibody (B).
A Maxisorp plate (Nunc) was coated for 16 h at 4° C. with 100 μl/well hybridoma supernatant diluted 1:50 in Voller's reagent. Cell free hybridoma supernatants were acquired directly from individual cultures by centrifugation at 1,400 rpm for 5 min. The plate was blocked with 200 μl 1% BSA in PBST 0.05% (v/v) Tween 20 for 1 h at room temperature. Either a half concentration dilution series of 200 ng/ml to 3.125 ng/ml of both C-SLPI and SLPI (100 μl/well) in 1% BSA in PBST 0.05% (v/v) Tween 20 or CF sputum samples diluted 1:50 v/v in 1% BSA in PBST 0.05% (v/v) Tween 20 were added to the plate and incubated for 2 h at room temperature. Control wells received NE alone. […] The absorbance at 405 nm of wells was measured on a microtiter plate reader (Genios using Magellan software) and results were analyzed using GraphPad Prism version 6 (GraphPad Software).

B1: Human neutrophil elastase (human sputum derived NE, Elastin Products SE563) (protein)
chain: IVGGRRARPHAWPFMVSLQLRGGHFCGATLIAPNFVMSAAHCVANVNVRAVRVVLGAHNLSRREPTRQVFAVQRIFENGYDPVNLLNDIVILQLNGSATINANVQVAQLPAQGRRLGNGVQCLAMGWGLLGRNRGIASVLQELNVTVVTSLCRRSNVCTLVRGRQAGVCFGDSGSPLVCNGLIHGIASFVRGGCASGLYPDAFAPVAQFVNWIDSIIQ
Q: How did the “SLPI cleavage by NE (Western blot)” value [1] turn out when B1 was run?
A: Successful cleavage of SLPI was observed at molar ratios of 1:4, 1:8 and 1:10 SLPI to NE

B2: C5.5 monoclonal antibody (supernatant of hybridoma clone C5.5) (antibody, V domains shown)
VH: EVQLVESGGGLVHPQGSLKLSCTASGFTFNTYDMNWVRQAPGKGLEWVARIRTKSYYYATYYADSVKDRFTISRDDSQTMLYLQLNNLKTEDTALYYCVRRSGNYGAMDYWGQGTSVTVSS
VL: QIVLTQSPAIMSASLGERVTMTCTASSSVSSSYLHWYQQKPGSSPKLWIYSTSNLASGVPARFSGSGSGTSYSLTISSMEAEDAATYYCHQYHRSPRTFGGGTKLEIK
notes: Used as cell-free hybridoma supernatant coated on the plate (capture antibody); also called C5.5 supernatant
Q: Does B2 bind [2]?
A: no binding (tested: 200 ng/ml to 3.125 ng/ml)
